The values that follow come from patent US20060115428A1 (MorphoSys, published 2006).

In experiment [1] the target is T1, recombinant fibronectin domain ED-B (His)6 (human, UniProt P02751 1266-1356).
T1 construct: domain: ED-B; Produced by standard procedures; immobilised on ELISA plates or on the BIAcore chip; also called recombinant ED-B; human ED-B
Briefly: SPR (BIAcore), ED-B immobilised on chip, Fab in flow. As for the experimental part:
(§1) F1-Chips (Biacore, Sweden) were coated with about 200 RU of ED-B (30 μg/ml, 10 mmol of acetate buffer, pH 4.0) and reference flow cells with a corresponding amount of human serum albumin (20 μg/ml, 10 mmol of acetate buffer, pH 4.5) with use of standard EDC-NHS-amine-coupling chemistry. The antigen density was reduced to about 100 RU for the Fab characterization of the second maturation. The regeneration was carried out with 10 mmol of HCl. All kinetic measurements were carried out in PBS buffer (136 mmol of NaCl, 2.7 mmol of KCl, 10 mmol of Na₂HPO₄, 1.76 mmol of KH₂PO₄, pH 7.4) with a flow rate of 20 μl/minute with use of a Fab concentration range of 1.5-500 nmol. The injection period was 1 minute in each case. All sensograms were evaluated with use of BIA evaluation software 3.1.
The properties of twelve selected binding molecules was determined by BIAcore analysis (see Table 1). […] At least two independent measurements with Fab molecules from different batches were performed for protein expression and protein purification. The binding rate (Kₒₙ) and the dissociating-off rate (Koff) of the Fab molecule are indicated in separate columns.
For orientation: SPR reads the build-up and loss of mass on a sensor chip optically.

In experiment [2] the target is T1, recombinant fibronectin domain ED-B …. The experiment is described as follows: SPR (BIAcore); ratio to parent clone MOR02619. As for the experimental part:
as §1

Experiment [3] has the same target. Briefly: SPR (BIAcore), ED-B immobilised on chip, Fab in flow. As for the experimental part: as §1
The source holds these as a separate data set.

In experiment [4] the target is T2, recombinant fibronectin domain 7-8-9 (without ED-B) (UniProt P02751-1 1173-1446, limits assumed).
T2 construct: domain: fibronectin domains 7-8-9 (without ED-B)
The experiment is described as follows: specificity ELISA on immobilised recombinant domain 7-8-9.

The target of experiment [5] is T3, recombinant fibronectin domain 6 (UniProt P02751 1086-1172, limits assumed).
T3 construct: domain: fibronectin domain 6; also called 6FN; 6-FN
The experiment is described as follows: specificity ELISA on immobilised recombinant fibronectin domain 6. (An ELISA detects its analyte on a solid surface through an enzyme-linked reagent.)

The target of experiment [6] is T1, recombinant fibronectin domain ED-B …. The experiment is described as follows: SPR (BIAcore), ED-B immobilised on chip (about 100 RU), Fab in flow. How it is done: as §1

B1: MOR02613 (Fab, V domains shown)
VH: QVQLVESGGGLVQPGGSLRLSCAASGFTFSNYTMTWVRQAPGKGLEWVSFIIGSGSNTSYADSVKGRFTISRDNSKNTLYLQMNSLRAEDTAVYYCARYVNGFDIWGQGTLVTVSS
VL: DIALTQPASVSGSPGQSITISCTGTSSDVGVYYYVSWYQQHPGKAPKLMIYYDSKRPSGVSNRFSGSKSGNTASLTISGLQAEDEADYYCQTYAKKDYSLVFGGGTKLTVLG
notes: HuCAL GOLD Fab, VH3/L2
For orientation: Kd means the concentration at which binding is half-saturated. As usually defined, the koff is the first-order rate constant of dissociation. The term kon denotes the rate constant with which the complex forms. For the molecule B1, in experiment [1], the Kd is 164 nM, the koff is 0.13 s⁻¹ and the kon came to 780000 M⁻¹ s⁻¹.

B2: MOR03066 (Fab, V domains shown)
VH: QVQLQESGPGLVKPGETLSLTCTVSGGSISSYYWSWIRQAPGKGLEWIGIGHWGSTQYNPSLKGRVTISVDTSKNQFSLKLSSVTAEDTAVYYCARFFDVWGQGTLVTVSS
VL: DIVLTQPPSVSGAPGQRVTISCSGSSSNIGSNTVRWYQQLPGTAPKLLIYSNNKRPSGVPDRFSGSKSGTSASLAITGLQSEDEADYYCSSYDTQVTRVFGGGTKLTVLG
notes: Fab, L-CDR3 derivative of MOR02619
In the case of B2, in experiment [2], the “x-Fold Improvement Relative to the Parent Clone, KD” value turned out to be 3.8 fold; the “x-Fold Improvement Relative to the Parent Clone, Koff” value turned out to be 2.8 fold; the “x-Fold Improvement Relative to the Parent Clone, Kon” value amounted to 1.4 fold. Also, in experiment [3], the equilibrium dissociation constant (Kd) came out at 4.2 nM, the koff amounted to 0.0047 s⁻¹ and the kon was found to be 1.1e+06 M⁻¹ s⁻¹.

B3: MOR03055 (Fab, V domains shown)
VH: QVQLQESGPGLVKPGETLSLTCTVSGGSISSYYWSWIRQAPGKGLEWIGIGHWGSTQYNPSLKGRVTISVDTSKNQFSLKLSSVTAEDTAVYYCARFFDVWGQGTLVTVSS
VL: DIVLTQPPSVSGAPGQRVTISCSGSSSNIGSNTVRWYQQLPGTAPKLLIYSNNKRPSGVPDRFSGSKSGTSASLAITGLQSEDEADYYCQAWTRAHRYPVFGGGTKLTVLG
notes: as for B2
In the case of B3, in experiment [2], the “x-Fold Improvement Relative to the Parent Clone, KD” value worked out at 5.4 fold; the “x-Fold Improvement Relative to the Parent Clone, Koff” value stood at 2.6 fold; the “x-Fold Improvement Relative to the Parent Clone, Kon” value was determined as 2.2 fold. Besides, in experiment [3], the dissociation constant Kd is 3 nM, the koff is 0.0051 s⁻¹ and the kon stood at 1.8e+06 M⁻¹ s⁻¹.

B4: MOR03069 (Fab, V domains shown)
VH: QVQLQESGPGLVKPGETLSLTCTVSGGSISSYYWSWIRQAPGKGLEWIGIGHWGSTQYNPSLKGRVTISVDTSKNQFSLKLSSVTAEDTAVYYCARFFDVWGQGTLVTVSS
VL: DIVLTQPPSVSGAPGQRVTISCSGSSSNIGSNTVRWYQQLPGTAPKLLIYSNNKRPSGVPDRFSGSKSGTSASLAITGLQSEDEADYYCWTGMSYHFVFGGGTKLTVLG
notes: as for B2
As to B4, in experiment [2], the “x-Fold Improvement Relative to the Parent Clone, KD” value is 4.8 fold; the “x-Fold Improvement Relative to the Parent Clone, Koff” value turned out to be 3.2 fold; the “x-Fold Improvement Relative to the Parent Clone, Kon” value was 1.5 fold. Moreover, in experiment [3], the Kd was found to be 3.3 nM, the koff came out at 0.0041 s⁻¹ and the kon is 1.2e+06 M⁻¹ s⁻¹.

B5: MOR03071 (Fab, V domains shown)
VH: QVQLQESGPGLVKPGETLSLTCTVSGGSISSYYWSWIRQAPGKGLEWIGIGHWGSTQYNPSLKGRVTISVDTSKNQFSLKLSSVTAEDTAVYYCARFFDVWGQGTLVTVSS
VL: DIVLTQPPSVSGAPGQRVTISCSGSSSNIGSNTVRWYQQLPGTAPKLLIYSNNKRPSGVPDRFSGSKSGTSASLAITGLQSEDEADYYCLAYIQSKGHVFGGGTKLTVLG
notes: as for B2
On to B5, for which, in experiment [2], the “x-Fold Improvement Relative to the Parent Clone, KD” value was 5.1 fold; the “x-Fold Improvement Relative to the Parent Clone, Koff” value was found to be 2.3 fold; the “x-Fold Improvement Relative to the Parent Clone, Kon” value is 2.3 fold. In addition, in experiment [3], the Kd was 3.1 nM, the koff was found to be 0.0057 s⁻¹ and the on-rate constant (kon) stood at 1.9e+06 M⁻¹ s⁻¹.

B6: MOR03075 (Fab, V domains shown)
VH: QVQLQESGPGLVKPGETLSLTCTVSGGSISSYYWSWIRQAPGKGLEWIGIGHWGSTQYNPSLKGRVTISVDTSKNQFSLKLSSVTAEDTAVYYCARFFDVWGQGTLVTVSS
VL: DIVLTQPPSVSGAPGQRVTISCSGSSSNIGSNTVRWYQQLPGTAPKLLIYSNNKRPSGVPDRFSGSKSGTSASLAITGLQSEDEADYYCQSWDPRSFTVFGGGTKLTVLG
notes: as for B2
Turning to B6, in experiment [2], the “x-Fold Improvement Relative to the Parent Clone, KD” value is 6.8 fold; the “x-Fold Improvement Relative to the Parent Clone, Koff” value was 5 fold; the “x-Fold Improvement Relative to the Parent Clone, Kon” value was determined as 1.4 fold. For the same molecule, in experiment [3], the Kd amounted to 2.4 nM, the koff is 0.0026 s⁻¹ and the kon was determined as 1.1e+06 M⁻¹ s⁻¹.

B7: MOR02622 (Fab, V domains shown)
VH: QVQLVESGGGLVQPGGSLRLSCAASGFTFSNYAMTWVRQAPGKGLEWVSGISYKSSSTYYADSVKGRFTISRDNSKNTLYLQMNSLRAEDTAVYYCARGLVTFDNWGQGTLVTVSS
VL: DIALTQPASVSGSPGQSITISCTGTSSDGGTYNFVSWYQQHPGKAPKLMIYRVSNRPSGVSNRFSGSKSGNTASLTISGLQAEDEADYYCSSWTHSFTDYVFGGGTKLTVLG
notes: HuCAL GOLD Fab, VH3/L2
In the case of B7, in experiment [1], the Kd worked out at 21.3 nM, the koff came out at 0.0051 s⁻¹ and the kon was 240000 M⁻¹ s⁻¹. In experiment [4], the binding result is on record as “no binding”. Besides, the binding result in experiment [5] is reported as “no binding”.

B8: MOR02616 (Fab, V domains shown)
VH: QVQLVESGGGLVQPGGSLRLSCAASGFTFRNNAMHWVRQAPGKGLEWVSAISSSGSGTYYADSVKGRFTISRDNSKNTLYLQMNSLRAEDTAVYYCARVIVLFDYWGQGTLVTVSS
VL: DIVLTQSPATLSLSPGERATLSCRASQNVRSNLAWYQQKPGQAPRLLIYGASNRATGVPARFSGSGSGTDFTLTISSLEPEDFAVYYCLQKYSIPFTFGQGTKVEIKR
notes: HuCAL GOLD Fab, VH3/K3
As to B8, in experiment [1], the Kd worked out at 59 nM, the dissociation rate constant (koff) worked out at 0.028 s⁻¹ and the kon turned out to be 540000 M⁻¹ s⁻¹.

B9: MOR02722 (Fab, V domains shown)
VH: QVQLVESGGGLVQPGGSLRLSCAASGFTFSSNAIHWVRQAPGKGLEWVSSISGSGSNTYYADSVKGRFTISRDNSKNTLYLQMNSLRAEDTAVYYCARFIASWGQGTLVTVSS
VL: DIVMTQSPLSLPVTPGEPASISCRSSQSLVHSNGYTDLNWYLQKPGQSPQLLIYLGSYRASGVPDRFSGSGSGTDFTLKISRVEAEDVGVYYCQQYSNFPFTFGQGTKVEIKR
notes: HuCAL GOLD Fab, VH3/K2
As to B9, in experiment [1], the Kd came to 94 nM, the koff was 0.014 s⁻¹ and the kon was 150000 M⁻¹ s⁻¹. In experiment [4], the binding result is “no binding”. For the same molecule, the binding result in experiment [5] was “no binding”.

B10: MOR02614 (Fab, V domains shown)
VH: QVQLVESGGGLVQPGGSLRLSCAASGFTFNNNWMHWVRQAPGKGLEWVSFISGSGSHTYYADSVKGRFTISRDNSKNTLYLQMNSLRAEDTAVYYCARAYDVWGQGTLVTVSS
VL: DIVLTQPPSVSGAPGQRVTISCSGSSSNIGFNYVNWYQQLPGTAPKLLIYGNSKRPSGVPDRFSGSKSGTSASLAITGLQSEDEADYYCAMFSPEGVFGGGTKLTVLG
notes: HuCAL GOLD Fab, VH3/L1
For the molecule B10, in experiment [1], the Kd turned out to be 160 nM, the koff is 0.042 s⁻¹ and the kon turned out to be 280000 M⁻¹ s⁻¹. Also, the binding result in experiment [4] is given as “no binding”. In addition, the binding result in experiment [5] is “no binding”.

B11: MOR03243 (Fab, V domains shown)
VH: QVQLQESGPGLVKPGETLSLTCTVSGGSISSYYWSWIRQAPGKGLEWIGEIHRGGYTQYNPSLKSRVTISVDTSKNQFSLKLSSVTAADTAVYYCARFFDVWGQGTLVTVSS
VL: DIVLTQPPSVSGAPGQRVTISCSGSSSNIGSNTVRWYQQLPGTAPKLLIYSNNKRPSGVPDRFSGSKSGTSASLAITGLQSEDEADYYCQAWTRAHRYPVFGGGTKLTVLG
notes: Fab, H-CDR2 derivative of MOR03055
As for B11, in experiment [6], the dissociation constant (Kd) stood at 0.7 nM, the koff amounted to 0.0018 s⁻¹ and the kon came to 2.9e+06 M⁻¹ s⁻¹.

B12: MOR02610 (Fab, V domains shown)
VH: QVQLVQSGAEVKKPGASVKVSCKASGYTFTGFYINWVRQAPGQGLEWMGWINPYSGNTRYAQKFQGRVTMTRDTSISTAYMELSSLRSEDTAVYYCARSPVYYKYDYWGQGTLVTVSS
VL: DIVLTQPPSVSGAPGQRVTISCSGSSGNIGINFVNWYQQLPGTAPKLLIYKNNKRPSGVPDRFSGSKSGTSASLAITGLQSEDEADYYCQSYDKTSSTYVFGGGTKLTVLG
notes: HuCAL GOLD Fab, VH1B/L1
In the case of B12, in experiment [1], the Kd worked out at 75 nM, the koff stood at 0.091 s⁻¹ and the kon stood at 1.3e+06 M⁻¹ s⁻¹. Moreover, the binding result in experiment [4] is given as “no binding”. Besides, in experiment [5], the binding result was “no binding”.

B13: MOR02611 (Fab, V domains shown)
VH: QVQLVQSGAEVKKPGASVKVSCKASGYTFSGSYMHWVRQAPGQGLEWMGIINPASGKTLYAQKFQGRVTMTRDTSISTAYMELSSLRSEDTAVYYCARGLYYRFASWGQGTLVTVSS
VL: DIALTQPASVSGSPGQSITISCTGTSSDIGGYHSVSWYQQHPGKAPKLMIYRSNRPSGVSNRFSGSKSGNTASLTISGLQAEDEADYYCAAATGGWVFGGGTNLTVLG
notes: HuCAL GOLD Fab, VH1B/L2
With B13, in experiment [1], the Kd is 332 nM, the koff came out at 0.051 s⁻¹ and the kon amounted to 150000 M⁻¹ s⁻¹.
